This experiment concerns the target T1, C−反応性タンパク(CRP), ヒトCRP抗原 (human) (UniProt P02741).
T1 sequence (looked up): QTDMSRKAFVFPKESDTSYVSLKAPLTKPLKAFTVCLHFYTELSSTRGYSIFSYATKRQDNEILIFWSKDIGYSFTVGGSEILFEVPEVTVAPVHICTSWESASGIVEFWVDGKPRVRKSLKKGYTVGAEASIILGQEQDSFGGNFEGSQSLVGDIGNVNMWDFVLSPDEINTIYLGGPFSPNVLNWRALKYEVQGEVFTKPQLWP
In words: sandwich immunochromatography, His20 as capture and as gold-colloid label, read by eye after 15 min.

Among the data in JP2008058208A are lowest detectable CRP concentration values, retold here.

B1: 抗CRPscFv抗体No.20 (His-tagged scFv, His20) (scFv, not shown: small tags and cut ends)
scFv: MAQVKLPESGAELVKPGASVKLSCTPSGFNIKDTYIHWVRQRPGQGLEWIGRIDPANGHTRYAPKFQGKATLTADASSNTAYLHLSSLTSEDTAVYYCPRIVWYSGGYAMDYWGQGTTVTVSSGGGGSGGGGSGGGGSDIELTQSPSSMYASLGERVTITCKASQDINSYLSWFQQKPGKSPKTLIYRANRLVDGVPSRFSGSGSGQDYSLTISSLKYEDMGIYYCLQYDEFPLTFGGGTKLEIKRAA
The molecule B1 displayed a lowest detectable CRP concentration of 1 ng/mL.
